Assay results published in US20220396794, “[…] AGAINST TRANSFERRIN RECEPTOR (TfR)” (APTERNA LIMITED, published 2022).

Legend:
[1] = target: T1, Transferrin receptor 1 (hTfR/hTFRC) extracellular domain (Homo sapiens, UniProt P02786 SEQ:89-760); assay: SPR; not measurable; details: tags: N-terminal His6; expressed in HEK293; Sino Biological 11020-H07H; chain copies: 2 (inferred); label: biotin (SPR) or Cy3 (cells)
Description: (§1) Surface plasmon resonance-based biosensor assay. The Biacore T100 (GE Healthcare, Uppsala, Sweden) was used to monitor label-free interactions of truncated TR14-hTfR1 in real time. The biotinylated aptamer was coupled to a streptavidin-coated Biacore chip (SensorChip SA, BR-1003-98, General Electric Company) by an injection in binding buffer at a concentration of 25 μg/mL (30 mM Tris-HCl, pH 7.5; 150 mM NaCl; 5 mM MgCl₂) at 10 uL/min. The RNA was refolded by heating to 65° C., followed by cooling to 37° C., before immobilization. To measure binding kinetics, five concentrations of purified hTfR1 protein were injected at a flow rate of 10 uL/min. After binding, the surface was regenerated by injecting 50 mM NaOH at a flow rate of 15 μL/min for 20 s. Data from the control surface were subtracted. BIAevaluation software (GE Healthcare) was used for analysis. The binding data was fit to a 1:1 binding with a mass transfer model to calculate kinetics parameters as previously described (Hernandez et al, 2009; Soontornworajit et al, 2011)

[2] = target: T1, Transferrin receptor 1 (hTfR/hTFRC) …; assay: SPR; 30 mM Tris pH 7.5, 150 mM NaCl, 5 mM MgCl2; aptamer immobilised; details: tags: N-terminal His6; expressed in HEK293; Sino Biological 11020-H07H; chain copies: 2 (inferred); label: biotin (SPR) or Cy3 (cells)
Description: as §1

T1 sequence (P02786 89-760): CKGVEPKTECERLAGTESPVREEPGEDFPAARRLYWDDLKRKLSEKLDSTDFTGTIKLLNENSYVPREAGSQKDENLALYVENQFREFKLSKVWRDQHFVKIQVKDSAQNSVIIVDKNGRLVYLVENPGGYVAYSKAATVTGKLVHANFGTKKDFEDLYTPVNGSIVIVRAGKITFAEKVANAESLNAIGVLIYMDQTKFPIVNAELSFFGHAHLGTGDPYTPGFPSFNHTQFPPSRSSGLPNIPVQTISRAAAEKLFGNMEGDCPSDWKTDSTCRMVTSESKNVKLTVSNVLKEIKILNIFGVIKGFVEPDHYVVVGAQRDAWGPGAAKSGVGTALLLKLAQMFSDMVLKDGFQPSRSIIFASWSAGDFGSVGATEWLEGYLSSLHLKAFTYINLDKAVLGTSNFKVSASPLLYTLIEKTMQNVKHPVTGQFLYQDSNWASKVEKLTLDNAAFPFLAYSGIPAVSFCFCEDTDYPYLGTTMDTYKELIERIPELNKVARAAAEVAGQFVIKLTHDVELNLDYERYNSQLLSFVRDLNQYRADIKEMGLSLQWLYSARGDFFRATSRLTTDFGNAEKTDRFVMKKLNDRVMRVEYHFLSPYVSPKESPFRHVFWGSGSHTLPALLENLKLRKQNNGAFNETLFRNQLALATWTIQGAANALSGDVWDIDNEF

Binder | binding result [1] | Kd [2] [nM]
GCUCAAUGCGUUCACGUUUAUUCACAUUUUUGAAUUGAGC (ssRNA, 2'-F pyrimidines (rule of the parent selection)) [TR14 ST1-1 (40-nt)] | no binding | 
UUUAUUCACAUUUUUGAAUUGA (ssRNA, 2'-F pyrimidines (rule of the parent selection)) [TR14 ST1-3 (22-nt)] |  | 0.022
GGGGCUCAAUGCGUUCACGUUUAUUCACAUUUUUGAAUUGAGCAUG (ssRNA, 2'-F pyrimidines (rule of the parent selection)) [TR14 S1 (46-nt)] |  | 1.46
AAUGCGUUCACGUUUAUUCACAUUUUUGAAUU (ssRNA, 2'-F pyrimidines (rule of the parent selection)) [TR14 ST1-2 (32-nt)] | no binding | 
